Experiment [1] concerns the target SNAP-25 peptide comprising amino acids 134-197 of SEQ ID NO: 5 (human). Nature of the experiment: SPR (BIAcore 3000), peptide on CM5 chip, antibody in flow. Background: Surface plasmon resonance follows binding to a sensor surface in real time, without labels.
The target of experiment [2] is SNAP-25 peptide comprising amino acids 134-206 of SEQ ID NO: 5 (human). Described as above.

In patent US20120149104A1 one finds Kd, koff and kon data, which are given here for two substances.

One may read the Kd as the equilibrium constant for the complex coming apart. A high value points to a looser complex. What is called koff is a measure of how fast the partners let go of each other. A lower koff goes with a long-lived complex. Broadly, the kon is the rate constant with which the complex forms.

Consider “MC-6053 mouse α-SNAP-25 monoclonal antibody (Research & Diagnostic Antibodies)”, for which, in experiment [1], the Kd is 0.508 nM, the koff is 0.00118 s⁻¹ and the kon was 2.32e+06 M⁻¹ s⁻¹. In experiment [2], this substance displayed a Kd of 240 nM and a koff of 2.56e-05 s⁻¹.

In experiment [1], “MC-6050 mouse α-SNAP-25 monoclonal antibody (Research & Diagnostic Antibodies)” registered a Kd of 0.497 nM, a koff of 0.000882 s⁻¹ and a kon of 1.78e+06 M⁻¹ s⁻¹. In experiment [2], the dissociation constant (Kd) stood at 19800 nM, the koff was 0.00607 s⁻¹ and the kon is 306 M⁻¹ s⁻¹.
